Measurements as given in patent US20260243780A1.

Assays:
[1] = target: SLC3A2, as used in the SPR measurement; test: SPR, concentration gradient binding curves
[2] = target: transferrin receptor protein 1 (TFRC), as used in the SPR measurement; test: SPR, concentration gradient binding curves

Kd [1]: 35.2 nM | Kd [2]: 571 nM
Substance: Cf48 small peptide (C4orf48), as used in the SPR measurement
